T1: ArpU (phage phiFL2A late transcriptional regulator) (Enterococcus faecalis phage phiFL2A, UniProt D2IZF3 1-155)
T1 sequence: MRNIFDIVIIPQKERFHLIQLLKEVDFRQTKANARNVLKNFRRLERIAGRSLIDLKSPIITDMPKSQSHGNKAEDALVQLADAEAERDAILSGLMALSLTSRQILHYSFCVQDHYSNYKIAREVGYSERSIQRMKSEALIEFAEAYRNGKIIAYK

T2: LtrC (phage phi55 ORF34) (Staphylococcus aureus phage phi55, UniProt Q4ZB49 1-133)
T2 sequence: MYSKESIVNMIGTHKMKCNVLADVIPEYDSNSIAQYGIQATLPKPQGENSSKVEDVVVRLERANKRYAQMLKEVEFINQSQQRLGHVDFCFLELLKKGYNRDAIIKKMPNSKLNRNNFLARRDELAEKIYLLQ


How the values were obtained:
[1] = target: T1, ArpU (phage phiFL2A late …); experiment: EMSA
LtrC (phage phi55 ORF34) = target: T2, LtrC (phage phi55 ORF34); experiment: EMSA

Binder	binding result [1]	binding result (LtrC (phage phi55 ORF34))
ArpU wt probe (phiFL2A repeat region) (dsDNA) DNA 1: TAATTTTGGCGGTTTTTGGCGGAAAGTTGGCGGTTTTATACGAATTTGAGTGCTAATATAGTAATATCGAAAG DNA 2: CTTTCGATATTACTATATTAGCACTCAAATTCGTATAAAAACCGCCAACTTTCCGCCAAAAAACCGCAAAATTA	binds	–
LtrC wt probe (phi55 repeat region, ORF34wt) (dsDNA) DNA 1: TTGGCAGAAAAGATTTATCTACTACAGTGACGAAAATGACAAAATGACAGAAATGACGAAAATGACACTATTTTTAAACTGTGAATTAATTTTATATA DNA 2: TATATAAAATTAATTCACAGTTTAAAAATAGTGTCATTTTCGTCATTTCTGTCATTTTGTCATTTTCGTCACTGTAGTAGATAAATCTTTTCTGCCAA	–	binds

From PMC3753634
